# Target: the molecule itself
# Test: cross-linking; BS3 cross-linker mixed 1:1 (w/w) with protein at 1 mg/ml, 30 minutes at room temperature, quenched with 200 mM ammonium bicarbonate, resolved by SDS-PAGE
protein,measurement,value
"CENP-E_(2452-2598) (domain or fragment, human, UniProt Q02224-1 2452-2598, looked up, CENP-E (centromere-associated protein E), residues 2452-2598; cell constructs were generated from CENP-E transcript variant 1 (NM_001813.2); cloned into pET3aTr for expression; The purification says that the His tag was cleaved with 3C protease, yet the crystallisation and cross-linking methods call the protein His6-CENP-E_(2452-2598); also called His6-CENP-E_(2452-2598); minimal corona-targeting …) PYKEEIEDLKMKLVKIDLEKMKNAKEFEKEISATKATVEYQKEVIRLLRENLRRSQQAQDTSVISEHTDPQPSNKPLTCGGGSGIVQNTKALILKSEHIRLEKEISKLKQQNEQLIKQKNELLSNNQHLSNEVKTWKERTLKREAHK",stoichiometry N,2

# Source: publication PMC7617963 (Current biology : CB, 2024)
